In article doi:10.1101/2021.08.30.21262666:

Key:
Assay in all cases: SPR
[1] = biological target: AZD1061 (cilgavimab) (human)
[2] = biological target: AZD1061-TM (human)
[3] = biological target: AZD8895 (tixagevimab) (human)
[4] = biological target: AZD8895-TM (human)

## human neonatal Fc receptor (from UniProt P55899;P61769)
[1]
  Kd: 0.283 µM
[2]
  Kd: 2.36 µM
[3]
  Kd: 0.272 µM
[4]
  Kd: 2.4 µM
